What was measured:
[1] = molecular target: T1, full length human EGFR expressed on the cell surface (human, UniProt P00533 25-1210); assay: cell ELISA, IgG titrated on unfixed A431-NS cells after saturation with Fab 992 and Fab 1030; given as ED50
T1 construct: whole, on cells; also called EGFR on A431-NS cells; EGFR on HN5 cells
Description: (§1) Cell ELISA: The ELISA was performed essentially as described in example 15 with modifications. Cells were left unfixed to allow conformational EGFR flexibility after antibody additions. Briefly, 10,000 A431-NS cells were grown in 96 well ELISA plates containing DMEM with added 0.5% FCS and 1% P/S at 37° C., 5% CO₂ overnight. […] 25 μl DMEM containing 1% BSA was added to wells used for testing of IgG antibodies without added Fab fragments. […] Next, wells were washed four times with PBS and 50 μl of a secondary monoclonal Mouse-anti-Human (Fc specific) HRP conjugate diluted 1:5000 in DMEM containing 1% BSA was added and incubated on ice for 30 min. Finally wells were washed four times with PBS and plates developed by adding 50 μl/well TMB substrate and read at 620 nm every 5-15-30 min. After incubation with substrate the reaction was stopped by addition of 1 M H₂SO₄ and absorbance read at 450 nm. The functional affinity expressed as ED50 values were calculated by subtraction of the average background binding with secondary reagent only, followed by normalization of the binding curves by plotting % maximal binding relative to each antibody tested.
(§2) Investigations of antibody induced binding enhancements were determined by concurrent ELISA binding studies, employing same secondary antibody reagent and incubation times.

[2] = molecular target: T1, full length human EGFR expressed on the …; assay: cell ELISA, IgG titrated on unfixed A431-NS cells after saturation with Fab 1024 and Fab 1030; given as ED50
Description: as §1, §2

[3] = molecular target: T1, full length human EGFR expressed on the …; assay: cell ELISA, IgG titrated on unfixed A431-NS cells after saturation with Fab 1024; given as ED50
Description: as §1, §2

[4] = molecular target: T1, full length human EGFR expressed on the …; assay: cell ELISA, IgG titrated on unfixed A431-NS cells after saturation with Fab 1030; given as ED50
Description: as §1, §2

[5] = molecular target: T2, Cynomolgus EGFR extracellular domain (Cynomolgus monkey (Macaca fascicularis), UniProt P55245 25-645 (rhesus entry)); assay: ELISA on coated Cynomolgus rEGFR ECD
T2 construct: Cloned without signal peptide; also called Cynomolgus rEGFR ECD; Cynomolgus EGFR ECD
Description: To verify that tested Anti-EGFR antibodies bound equally well to both Human and Cynomolgus EGFR ECD and accordingly warranting toxicology studies in Cynomolgus monkeys, serial four fold dilutions of antibodies beginning from 1 μg/ml were tested by ELISA for binding to recombinant Human and Cynomolgus EGFR ECD proteins. […] ELISA wells were coated with 50 μl/well of full length EGFR at a concentration of 1 μg/ml in PBS overnight at 4° C. The next morning wells were washed twice with PBS-T and blocked for one hour with 100 μl PBS-T-1% BSA at room temperature, followed by wash twice in PBS-T. Next 50 μl of serially diluted Anti-EGFR antibodies and control antibodies were added to wells and incubated for one hour at room temperature. After antibody incubation wells were washed five times with PBS-T, followed by incubation with 50 μl/well Streptavidin-HRP secondary reagent diluted 1:3000 in blocking buffer and incubation at room temperature for 30 min. Finally wells were washed five times with PBS-T and plates were developed by adding 50 μL/well TMB substrate and incubated at room temperature. After incubation the reaction was stopped by addition of 1 M H₂SO₄; 100 μl/well and plates were read at OD 450 nm.

B1: antibody 1024 (antibody, human IgG1, kappa, V domains shown)
VH: QVQLQQPGAELVEPGGSVKLSCKASGYTFTSHWMHWVKQRPGQGLEWIGEINPSSGRNNYNEKFKSKATLTVDKSSSTAYMQFSSLTSEDSAVYYCVRYYGYDEAMDYWGQGTSVTVSS
VL: DIVMTQAAFSNPVTLGTSASISCRSSKSLLHSNGITYLYWYLQKPGQSPQLLIYQMSNLASGVPDRFSSSGSGTDFTLRISRVEAEDVGVYYCAQNLELPYTFGGGTKLEIKR
notes: Chimeric IgG1 kappa
[1]
  EC50: 0.8 nM

B2: antibody 992 (antibody, human IgG1, kappa, V domains shown)
VH: EVQLQQPGSELVRPGASVKLSCKASGYTFTSYWMHWVKQRPGQGLEWIGNIYPGSRSTNYDEKFKSKATLTVDTSSSTAYMQLSSLTSEDSAVYYCTRNGDYYVSSGDAMDYWGQGTSVTVSS
VL: DIQMTQTTSSLSASLGDRVTISCRTSQDIGNYLNWYQQKPDGTVKLLIYYTSRLHSGVPSRFSGSGSGTDFSLTINNVEQEDVATYFCQHYNTVPPTFGGGTKLEIKR
notes: Chimeric mouse/human IgG1 kappa; the VL entry includes the human kappa constant region
[2]
  EC50: 0.5 nM
[3]
  EC50: 0.5 nM
[4]
  EC50: 0.4 nM

B3: antibody 1208 (antibody, human IgG1, kappa, V domains shown)
VH: EVQLVESGGGLVKPGGSLKLSCAASGFAFSSYDMSWVRQTPEKRLEWVAYIGSGDDNTHYPDSVKGRFTISRHNAKNTLYLQMSSLKSEDTAMYYCARQKYGNYGDTMDYWGQGTSVTVSS
VL: DVVMTQTPLSLPVSLGDQASISCRSSQSLVHSNGNTYLHWYLQKPGQSPKLLIYKVSNRFSGVPDRFSGSGSGTDFTLKISRVEAEDLGVYFCSQSTHVPTFGGGTKLEIKR
notes: Chimeric IgG1 kappa; also called clone 1208
[5]
  binding result: binds
